For the experiment, the target named is HLA-A*02:01 (Homo sapiens, UniProt P04439, D140Y/D185E/D98H/E176V/E277Q/G131W/G231S/I119V/I121R/I166T/I218V/L300P/L318F/N151K/N90K/P208A/P217A/Q86G/Q94H/R138H/R169H/T345S). The experiment is described as follows: MHC binding assay (UV-ligand exchange, ELISA of stabilized MHC complexes). The settings on record: MHC class I binding score; binding to HLA-A*02:01 ranged by peptide exchange yield (UV-ligand exchange, ELISA). The gist of the method:
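Peptide-MHC complexes made by UV-ligand exchange, cleaving a UV-sensitive placeholder peptide and replacing it with the test peptide. Exchange yield measured by ELISA: streptavidin-captured monomers (diluted 100-fold, 1 h, 37 °C) detected with HRP anti-β2m and TMB, absorbance at 450 nm.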
Background: An ELISA detects its analyte on a solid surface through an enzyme-linked reagent.
“471 (YLYNNMIAKI; listed as Homo sapiens) [compound 471]”: the Peptide exchange result is listed as “″+++″ (≥50% = +++)”.
Regarding “239 (AAFAGKLLSV; listed as Homo sapiens) [compound 239]”, the Peptide exchange entry is “″+++″ (≥50% = +++)”.
For “131 (FVPPVTVFPSL; listed as Homo sapiens) [compound 131]”, the Peptide exchange result is listed as “″++″ (≥20% = ++)”.
Next, “400 (SLLTEQDLWTV; listed as Homo sapiens) [compound 400]”: “″++″ (≥20% = ++)”; “379 (IMEGTLTRV; listed as Homo sapiens) [compound 379]”: “″++″ (≥20% = ++)”.
Next, “440 (ALADGVTMQV; listed as Homo sapiens) [compound 440]”: “″++″ (≥20% = ++)”; “491 (GLNDRSDAV; listed as Homo sapiens) [compound 491]”: “″++″ (≥20% = ++)”.
As for “167 (KVLEVTEEFGV; listed as Homo sapiens) [compound 167]”, the entry is “″+++″ (≥50% = +++)”; as for “383 (ALLELENSVTL; listed as Homo sapiens) [compound 383]”, “″+++″ (≥50% = +++)”.
As to “228 (AMQEYIAVV; listed as Homo sapiens) [compound 228]”, the Peptide exchange result was “″++″ (≥20% = ++)”.
As for “594 (IMLKGDNITL; listed as Homo sapiens) [compound 594]”, the Peptide exchange result was “″+++″ (≥50% = +++)”.
Take “600 (ALAAPDIVPAL; listed as Homo sapiens) [compound 600]”: the Peptide exchange result was “″+++″ (≥50% = +++)”.
For “359 (YLLPESVDL; listed as Homo sapiens) [compound 359]”, the Peptide exchange entry was “″+++″ (≥50% = +++)”.
Regarding “18 (YLVAKLVEV; listed as Homo sapiens) [compound 18]”, the Peptide exchange result is given as “″++″ (≥20% = ++)”.
As to “101 (ILVGGGALATV; listed as Homo sapiens) [compound 101]”, the Peptide exchange entry was “″+++″ (≥50% = +++)”.
Turning to “373 (SLLEDKGLAEV; listed as Homo sapiens) [compound 373]”, the Peptide exchange result is reported as “″++″ (≥20% = ++)”.
In the case of “214 (FLLDLDPLLL; listed as Homo sapiens) [compound 214]”, the Peptide exchange result is “″+++″ (≥50% = +++)”.
Take “207 (GLTSTNAEV; listed as Homo sapiens) [compound 207]”: the Peptide exchange entry is on record as “″++″ (≥20% = ++)”.
With “160 (FLFDEEIEQI; listed as Homo sapiens) [compound 160]”, the Peptide exchange result is “″+++″ (≥50% = +++)”.
As for “206 (VLQEGKLQKLAQL; listed as Homo sapiens) [compound 206]”, the entry is “″+++″ (≥50% = +++)”.
“168 (KILDADIQL; listed as Homo sapiens) [compound 168]”: the Peptide exchange result is given as “″++++″ (≥75% = ++++)”.
Next, “72 (SLLELDGINL; listed as Homo sapiens) [compound 72]”: “″+++″ (≥50% = +++)”; “575 (YLISQVEGHQV; listed as Homo sapiens) [compound 575]”: “″+++″ (≥50% = +++)”; “439 (YLLQEIYGI; listed as Homo sapiens) [compound 439]”: “″+++″ (≥50% = +++)”.
Take “371 (FLQAHLHTA; listed as Homo sapiens) [compound 371]”: the Peptide exchange result is “″++++″ (≥75% = ++++)”.
For “110 (FLSQVDFEL; listed as Homo sapiens) [compound 110]”, the Peptide exchange result is recorded as “″+++″ (≥50% = +++)”.
Consider “67 (TLLAEALVTV; listed as Homo sapiens) [compound 67]”, for which the Peptide exchange entry was “″+++″ (≥50% = +++)”.
Regarding “69 (FQLDPSSGVLVTV; listed as Homo sapiens) [compound 69]”, the Peptide exchange entry is given as “″+++″ (≥50% = +++)”.
In the case of “502 (RLLAQVPGL; listed as Homo sapiens) [compound 502]”, the Peptide exchange result is “″+++″ (≥50% = +++)”.
Turning to “219 (KLSDIGITV; listed as Homo sapiens) [compound 219]”, the Peptide exchange result was “″+++″ (≥50% = +++)”.
Turning to “585 (ALWDLAADKQTL; listed as Homo sapiens) [compound 585]”, the Peptide exchange result was “″++++″ (≥75% = ++++)”.
As to “270 (LLLDEEGTFSL; listed as Homo sapiens) [compound 270]”, the Peptide exchange entry is “″++″ (≥20% = ++)”.
For “211 (LLWPGAALL; listed as Homo sapiens) [compound 211]”, the Peptide exchange result was “″++″ (≥20% = ++)”.
For “332 (YLISELEAA; listed as Homo sapiens) [compound 332]”, the Peptide exchange result is reported as “″+++″ (≥50% = +++)”.
“312 (IISDLTIAL; listed as Homo sapiens) [compound 312]”: the Peptide exchange result is “″+++″ (≥50% = +++)”.
As for “493 (GLLGEKTQDLIGV; listed as Homo sapiens) [compound 493]”, the Peptide exchange result is recorded as “″+++″ (≥50% = +++)”.
As to “339 (GLWEIENNPTVKA; listed as Homo sapiens) [compound 339]”, the Peptide exchange result is listed as “″++++″ (≥75% = ++++)”.
With “623 (YLVEDIQHI; listed as Homo sapiens) [compound 623]”, the Peptide exchange entry is reported as “″+++″ (≥50% = +++)”.
Take “569 (KLVDRTWTL; listed as Homo sapiens) [compound 569]”: the Peptide exchange result is given as “″+++″ (≥50% = +++)”.
Consider “81 (FLFSQLQYL; listed as Homo sapiens) [compound 81]”, for which the Peptide exchange entry was “″++″ (≥20% = ++)”.
With “385 (SLLEQGLVEA; listed as Homo sapiens) [compound 385]”, the Peptide exchange result is “″++″ (≥20% = ++)”.
Take “456 (LLIGHLERV; listed as Homo sapiens) [compound 456]”: the Peptide exchange result is reported as “″+++″ (≥50% = +++)”.
For “243 (LLLNELPSV; listed as Homo sapiens) [compound 243]”, the Peptide exchange entry is given as “″+++″ (≥50% = +++)”.
As for “347 (SLFKHDPAAWEA; listed as Homo sapiens) [compound 347]”, the entry is “″++++″ (≥75% = ++++)”; as for “527 (FLLEPGNLEV; listed as Homo sapiens) [compound 527]”, “″++++″ (≥75% = ++++)”.
As for “249 (LLDGFLVNV; listed as Homo sapiens) [compound 249]”, the entry is “″+++″ (≥50% = +++)”.
In the case of “136 (YLADPSNLFVV; listed as Homo sapiens) [compound 136]”, the Peptide exchange result is “″+++″ (≥50% = +++)”.
Next, “257 (SIFSAFLSV; listed as Homo sapiens) [compound 257]”: “″+++″ (≥50% = +++)”.
Regarding “102 (YLFESEGLVL; listed as Homo sapiens) [compound 102]”, the Peptide exchange entry is recorded as “″+++″ (≥50% = +++)”.
Next, “520 (LAVHPSGVAL; listed as Homo sapiens) [compound 520]”: “″+″ (≥10% = +)”.
Next, “55 (SLLDLETLSL; listed as Homo sapiens) [compound 55]”: “″++++″ (≥75% = ++++)”; “220 (LLQKFVPEI; listed as Homo sapiens) [compound 220]”: “″++″ (≥20% = ++)”.
Consider “434 (KVSNSGITRV; listed as Homo sapiens) [compound 434]”, for which the Peptide exchange result is listed as “″++″ (≥20% = ++)”.
As for “310 (FLVDTPLARA; listed as Homo sapiens) [compound 310]”, the entry is “″++++″ (≥75% = ++++)”.
Regarding “116 (YHIDEEVGF; listed as Homo sapiens) [compound 116]”, the Peptide exchange result is reported as “″+″ (≥10% = +)”.
With “4 (GIMEHITKI; listed as Homo sapiens) [compound 4]”, the Peptide exchange result is “″++++″ (≥75% = ++++)”.
Next, “114 (SLVGEPILQNV; listed as Homo sapiens) [compound 114]”: “″++″ (≥20% = ++)”.
“604 (SILDRDDIFV; listed as Homo sapiens) [compound 604]”: the Peptide exchange result is given as “″+++″ (≥50% = +++)”.
For “264 (SLQEQLHSV; listed as Homo sapiens) [compound 264]”, the Peptide exchange entry was “″+++″ (≥50% = +++)”.
“254 (TLLAFIMEL; listed as Homo sapiens) [compound 254]”: the Peptide exchange result was “″+++″ (≥50% = +++)”.
On to “50 (SLSELEALM; listed as Homo sapiens) [compound 50]”, for which the Peptide exchange entry is given as “″+++″ (≥50% = +++)”.
As for “547 (TLDITPHTV; listed as Homo sapiens) [compound 547]”, the entry is “″+++″ (≥50% = +++)”.
As for “191 (LLQEGQALEYV; listed as Homo sapiens) [compound 191]”, the Peptide exchange entry is “″++″ (≥20% = ++)”.
As for “21 (VLDELDMEL; listed as Homo sapiens) [compound 21]”, the entry is “″++″ (≥20% = ++)”.
As for “263 (LLVSNLDFGV; listed as Homo sapiens) [compound 263]”, the Peptide exchange result was “″+++″ (≥50% = +++)”.
With “512 (SLSEIVPCL; listed as Homo sapiens) [compound 512]”, the Peptide exchange entry is listed as “″+++″ (≥50% = +++)”.
As for “306 (ALVNVQIPL; listed as Homo sapiens) [compound 306]”, the entry is “″+++″ (≥50% = +++)”; as for “267 (ALQDFLLSV; listed as Homo sapiens) [compound 267]”, “″+++″ (≥50% = +++)”.
Regarding “142 (FLFATPVFI; listed as Homo sapiens) [compound 142]”, the Peptide exchange result is given as “″+++″ (≥50% = +++)”.
As for “568 (TLYDIAHTPGV; listed as Homo sapiens) [compound 568]”, the Peptide exchange result is listed as “″++++″ (≥75% = ++++)”.

These data come from patent US10472401B2, “Peptides and combination of peptides for use in immunotherapy against ovarian cancer and other cancers” (immatics biotechnologies GmbH, priority 2015, dated 2019).
